Paper PMC10686051 (Nature structural & molecular biology, 2023)

Biological target: the molecule itself
Test: MST

B1: MRE11 structured-domain (1–411 aa) (domain or fragment, UniProt P49959 1-411, looked up)
chain: MSTADALDDENTFKILVATDIHLGFMEKDAVRGNDTFVTLDEILRLAQENEVDFILLGGDLFHENKPSRKTLHTCLELLRKYCMGDRPVQFEILSDQSVNFGFSKFPWVNYQDGNLNISIPVFSIHGNHDDPTGADALCALDILSCAGFVNHFGRSMSVEKIDISPVLLQKGSTKIALYGLGSIPDERLYRMFVNKKVTMLRPKEDENSWFNLFVIHQNRSKHGSTNFIPEQFLDDFIDLVIWGHEHECKIAPTKNEQQLFYISQPGSSVVTSLSPGEAVKKHVGLLRIKGRKMNMHKIPLHTVRQFFMEDIVLANHPDIFNPDNPKVTQAIQSFCLEKIEEMLENAERERLGNSHQPEKPLVRLRVDYSGGFEPFSVLRFSQKFVDRVANPKDIIHFFRHREQKEKTGEE
modifications: amine-reactive AlexaFluor-647 dye on the labeled copy; the titrated copy is unlabeled
- Kd: 370 ± 80 nM
